Measurements: patent publication US20150291689A1 (AbbVie / Abbott, published 2015)
Changes are numbered by the printed parent chain.

What was measured:
rabbit IL-17 [1] = biological target: T1, rabbit IL-17 (Rabbit, UniProt G1SLF2 24-153); experiment: Biacore SPR, 3 experiments
T1 sequence: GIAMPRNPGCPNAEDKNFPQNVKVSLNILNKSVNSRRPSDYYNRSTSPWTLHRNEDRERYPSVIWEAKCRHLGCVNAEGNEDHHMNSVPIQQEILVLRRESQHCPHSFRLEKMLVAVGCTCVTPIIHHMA

[2] = biological target: T2, human IL-17A/F heterodimer (human, UniProt Q16552 24-155; Q96PD4 31-163); experiment: cell-based or functional assay
T2 sequence 1: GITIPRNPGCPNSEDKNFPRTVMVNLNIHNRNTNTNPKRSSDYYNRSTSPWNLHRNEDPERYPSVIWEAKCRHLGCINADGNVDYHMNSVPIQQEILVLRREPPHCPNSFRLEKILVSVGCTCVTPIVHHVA
T2 sequence 2: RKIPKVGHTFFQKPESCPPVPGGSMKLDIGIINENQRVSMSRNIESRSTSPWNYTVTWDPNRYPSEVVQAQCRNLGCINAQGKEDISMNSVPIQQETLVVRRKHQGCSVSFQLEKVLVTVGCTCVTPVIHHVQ

[3] = biological target: T3, human IL-17A homodimer (IL-17 A/A) (human, UniProt Q16552 24-155); experiment: cell-based or functional assay
T3 sequence: T2 sequence 1

human TNF-α [4] = biological target: T4, human TNF-α (human, UniProt P01375 77-233); experiment: cell-based or functional assay
T4 sequence (P01375 77-233 limits assumed): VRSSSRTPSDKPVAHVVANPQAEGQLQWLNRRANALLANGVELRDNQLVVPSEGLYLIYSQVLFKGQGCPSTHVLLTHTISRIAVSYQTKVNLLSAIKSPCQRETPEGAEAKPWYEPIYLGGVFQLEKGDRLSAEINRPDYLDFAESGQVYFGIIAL

mouse TNF = biological target: T5, mouse TNF (Mouse, UniProt P06804 80-235); experiment: cell-based or functional assay
T5 sequence (looked up): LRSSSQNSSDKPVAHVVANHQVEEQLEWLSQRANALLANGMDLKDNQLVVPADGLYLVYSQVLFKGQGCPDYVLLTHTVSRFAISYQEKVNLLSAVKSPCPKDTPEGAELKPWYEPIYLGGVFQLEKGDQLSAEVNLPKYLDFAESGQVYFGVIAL

[5] = biological target: T6, monkey (Rhesus/Cynomolgus) IL-17 (Monkey (Rhesus/Cynomolgus), UniProt F6T3G5 24-155); experiment: cell-based or functional assay
T6 sequence: T2 sequence 1 with T3A, N17T, I77V, P104R

rat TNF = biological target: T7, rat TNF (Rat, UniProt P16599 80-235); experiment: cell-based or functional assay
T7 sequence (looked up): T5 sequence (looked up) with V22A, V58I, N91S, V96I, I117M, Q130L, F143I, A144T

rat IL-17 = biological target: T8, rat IL-17 (Rat, UniProt Q61453 18-150, limits assumed); experiment: cell-based or functional assay
T8 sequence (looked up): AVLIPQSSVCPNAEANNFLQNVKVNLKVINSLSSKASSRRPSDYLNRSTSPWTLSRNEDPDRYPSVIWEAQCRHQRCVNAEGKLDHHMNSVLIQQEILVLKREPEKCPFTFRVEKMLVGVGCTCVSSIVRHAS

[6] = biological target: T3, human IL-17A homodimer (IL-17 A/A); experiment: cell-based or functional assay; remark: listed apart in the source
human TNF-α [7] = biological target: T4, human TNF-α; experiment: cell-based or functional assay; remark: listed apart in the source
[8] = biological target: monkey (Rhesus/Cynomolgus) TNF (Monkey (Rhesus/Cynomolgus), UniProt P48094 77-233); experiment: cell-based or functional assay
Sequence of monkey (Rhesus/Cynomolgus) TNF (P48094 77-233 limits assumed): as the sequence (P01375 77-233 limits assumed) above, with R44T, T72N, R138L counted along it

rabbit TNF = biological target: T9, rabbit TNF (Rabbit, UniProt P04924 80-235, limits assumed); experiment: cell-based or functional assay
T9 sequence (looked up): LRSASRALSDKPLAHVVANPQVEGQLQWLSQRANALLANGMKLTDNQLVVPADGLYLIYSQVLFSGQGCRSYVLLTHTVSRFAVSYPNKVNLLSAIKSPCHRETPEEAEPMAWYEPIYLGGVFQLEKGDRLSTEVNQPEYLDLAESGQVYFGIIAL

mouse IL-17 = biological target: T10, mouse IL-17 (Mouse, UniProt Q62386 26-158, limits assumed); experiment: cell-based or functional assay
T10 sequence (looked up): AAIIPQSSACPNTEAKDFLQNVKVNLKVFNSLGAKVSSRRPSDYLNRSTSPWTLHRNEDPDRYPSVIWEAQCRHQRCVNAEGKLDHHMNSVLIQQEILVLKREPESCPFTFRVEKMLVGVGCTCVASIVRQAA

rabbit IL-17 [9] = biological target: T1, rabbit IL-17; experiment: cell-based or functional assay

B1: ABBV-257 (HMAK199-1-GS10-H10F7-M11 DVD-Ig binding protein) (bispecific antibody)
heavy: EVQLVQSGAEVKKPGASVKVSCKASGYTFANYGIIWVRQAPGQGLEWMGWINTYTGKPTYAQKFQGRVTMTTDTSTSTAYMELSSLRSEDTAVYYCARKLFTTMDVTDNAMDYWGQGTTVTVSSGGGGSGGGGSEVQLVQSGAEVKKPGSSVKVSCKASGYTFTDYEIHWVRQAPGQGLEWMGVNDPESGGTFYNQKFDGRVTLTADESTSTAYMELSSLRSEDTAVYYCTRYSKWDSFDGMDYWGQGTTVTVSSASTKGPSVFPLAPSSKSTSGGTAALGCLVKDYFPEPVTVSWNSGALTSGVHTFPAVLQSSGLYSLSSVVTVPSSSLGTQTYICNVNHKPSNTKVDKKVEPKSCDKTHTCPPCPAPEAAGGPSVFLFPPKPKDQLMISRTPEVTCVVVDVSHEDPEVKFNWYVDGVEVHNAKTKPREEQYNSTYRVVSVLTVLHQDWLNGKEYKCKVSNKALPAPIEKTISKAKGQPREPQVYTLPPSREEMTKNQVSLTCLVKGFYPSDIAVEWESNGQPENNYKTTPPVLDSDGSFFLYSKLTVDKSRWQQGNVFSCSVLHEALHNHYTQKSLSLSPGK
light: DIQMTQSPSSLSASVGDRVTITCRASQDISQYLNWYQQKPGKAPKLLIYYTSRLQSGVPSRFSGSGSGTDFTLTISSLQPEDFATYFCQQGNTWPPTFGQGTKLEIKRGGSGGGGSGDIQMTQSPSSLSASVGDRVTITCRASSGIISYIDWFQQKPGKAPKRLIYATFDLASGVPSRFSGSGSGTDYTLTISSLQPEDFATYYCRQVGSYPETFGQGTKLEIKRTVAAPSVFIFPPSDEQLKSGTASVVCLLNNFYPREAKVQWKVDNALQSGNSQESVTEQDSKDSTYSLSSTLTLSKADYEKHKVYACEVTHQGLSSPVTKSFNRGEC
modifications: N-linked glycans on the heavy chain (position not given)
- Kd (rabbit IL-17 [1]): 3.3 nM
- Mean IC50, IL-17 dependent induction of IL-6 in fibroblasts [2]: 110 pM
- Mean IC50, IL-17 dependent induction of IL-6 in fibroblasts [3]: 26 pM
- Mean IC50, TNF-induced lethality of L929 cells (human TNF-α [4]): 25 pM
- IC50, in vitro neutralization assay (mouse TNF): > 1 µM
- IC50, in vitro neutralization assay [5]: 32 pM
- IC50, in vitro neutralization assay (rat TNF): > 1 µM
- IC50, in vitro neutralization assay (rat IL-17): 135 pM
- IC50, in vitro neutralization assay [6]: 26 pM
- IC50, in vitro neutralization assay (human TNF-α [7]): 25 pM
- IC50, in vitro neutralization assay [8]: 25 pM
- IC50, in vitro neutralization assay (rabbit TNF): > 1 µM
- IC50, in vitro neutralization assay (mouse IL-17): 239 pM
- IC50, in vitro neutralization assay (rabbit IL-17 [9]): 11.4 nM
